Results from the DeepSol protein solubility set.

Experiment: soluble on expression in E. coli; label from the status in PepcDB or PDB records

Row | Sequence | soluble on expression in E. coli
1 | MSLLGTGYLPDGTHMPGANPNLNIAAFLKENHIDLHTTVYPGGGLDPYTSVEFLNIVSKHCKTVFSNANEVLNTIPNSIYVPGIINTEFYHYNQKVSTKPIQMIFAAHNAERKGFPLLAQAFNKLDDQFHLHIVGNWENSLHLLTNNNYTFWGMLDLEKLKQLYEQSHVFISCSTKDKFAIDGFPTTAAADAMATGCILVSTNHRNDNRILKPGEDYLKIEADSNSILSNLFWIKMNFEKALEIGKSGAIKMDKYFNYKTNVNFKLSHIF | not soluble
2 | MSLNRIFDAHCHIIDPQFPLIANNGYLPDPFGVGDYLATVQPLGVQGGAVVSGSFQGFDQGYLLQALRLLGPGFVGVTQLPASVTDTELDTLNAAGVRALRFNLKRGGSEQLDQLEALAVRVRERAGWHSELYIDSRELAEIETRLLKLPAISIDHLGLSAEGLPVVLRLAERGVRVKACGFGRVDFPVREALRDIHAANPNALMFGTDLPSTRAPRPFQPDDIELLIDALGEGGARQALWDNAAEFYREGHHHHHH | not soluble
3 | VTDASVHPDELDPEYHHHGGFPEYGPASPGAGFGQFVATMRRLQDLAVAADPGDAVWDEAAERAAALVELLSPFEADEGKAPAGRTPGLPGMGSLLLPPWTVTRYGTDGVEMRGSFSRFHVGGNSAVHGGVLPLLFDHMFGMISHAAGRPISRTAFLHVDYRRITPIDVPLIVRGRVTNTEGRKAFVCAELFDSDETLLAEGNGLMVRLLPGQP | soluble
4 | MGSDKIHHHHHHMVMDHDIYFGYQRPRPTEYVQFANFDSRQLNLYLAGRIANNPPTKEVTESIGYMDGIIDFSDILGRRIFDNRTIEYQFKALNINYHDRKLLEQKCKRLLLIPMRQPIYDSHDLPFYWFGKASSVTANDDHVNNVLEITVQFNVSPYALRKGQFDDIWDNFSLETGYAQFTKYSVKGTKKISLYNDSDLKSRLKVICQNDMTINGKYKYTKNYQDNPNFRLEPGINDLTVNGNGDIEFQWESEVML | not soluble
5 | MAGDPMRRTLYRLMIELTNGRFTSYILRKFAQSRLSSIIIPSYAKVFQINQDEMEKGLKEYRTLHELFTRKLKEGKRSIDTDASSIVSPVDGVFADHGPIEDTKTFDIKGKRYSIVDMLGNEERATRYAGGTYMVIYLSPSHYHRIHSPLSGSVTERFVLGRKSYPVNAAGMEYGKEPLSKNYRSVTEVSSDGEHMALVKVGAMFVNSIELLHERDTVQKGEEMAYFTFGSTVVLLFEKDMIEVVQELKSGQELRLGEKIATRLAHKLEHHHHHH | not soluble
6 | MSLENISETLRTLMNRKNLNHRYEALMTAVYQDPDVRQFLAAHQNELSSDALERSAAKLYEFCEEKRKIARHEPTQAPGYQPTLVMSNHLIDIAYQPTPQMQEQQAAHALQQRVRSISMPKNIQTADLKTYDQDGDRATALMAALDFIDAYTQAPKRFHRGLYLYGSFGVGKTYLLGGMANALAAKGFNTTLIHFPSFAVEMKRSISNNTSADKVDAIKRAPILMIDDIGADASSTWIRDDVLGVILEYRMQEELPTCFSSNFSMQELQDGYLTLSQKGDEEPVKAQRIMQRVRYLASEIEMVGRNRRLNPDAEGHHHHHH | soluble
7 | MKSLQSSLGNIETFKLDELCPKHEIQLTQIKGERHVVVGWNENGEAIKEVRCIPPYCEQCQEEQKKQDEEDAIADNLNAKLYMQTYNVLMSNKSYVADEFKTKTFDDFNAVTSEEKRFLEFAKGQVQKYLDGMRGNTLITGGTGIGKTLLSVAIAKGINEGYKTKGEPKSVLFVSLTEMIKQIKEGWNYGKGATLTEFEATELMKSVDYLIIDDLGAKNAVIKPKSDWEQDLLFDVLNNRENTIFNTNLDSDELKIVYNERNYSRILKGLEGNTFKAFGIKYKRYSLNQLKSNM | not soluble
8 | SSESESGGDFHEMREPRIEKVVVHMGIGHGGRDLANAEDILGEITGQMPVRTKAKRTVGEFDIREGDPIGAKVTLRDEMAEEFLQTALPLAELATSQFDDTGNFSFGVEEHTEFPSQEYDPSIGIYGLDVTVNLVRPGYRVAKRDKASRSIPTKHRLNPADAVAFIESTYDVEVSE | soluble
9 | MRGSHHHHHHTDPALRAMRLVQLSRHSIAFPSPEGALREPNGLLALGGDLSPARLLMAYQRGIFPWFSPGDPILWWSPDPRAVLWPESLHISRSMKRFHKRSPYRVTMNYAFGQVIEGCASDREEGTWITRGVVEAYHRLHELGHAHSIEVWREDELVGGMYGVAQGTLFCGESMFSRMENASKTALLVFCEEFIGHGGKLIDCQVLNDHTASLGACEIPRRDYLNYLNQMRLGRLPNNFWVPRCLFSPQEGLCGR | soluble
10 | MGSDKIHHHHHHMNMFSHINVDACKTPGCKNLGILGSPDYLPQGKNVLCRACGFLFPIISARSLNLFRQAANQPWKGLVKSCPHCGGTSLKKYGFSTKGERRMYCRQCNKTFISYTAIRSDARQENLATLIGEGASLVEIRAALAIDSTGFSRELQKLSRRANQAERDFVFPAFDIAMSTRAFRVKFNGGDSSLYVLVTAEEESGKVVAISTNYSAQPVEADYQYHSDYEERLPSGTLAHLVQRKEALTMRRNVLFDVDYGPAVLYKNDPGMLVKPVLPAYRHFELVQALTDERSLNVQHYLDHECFILGGCMMANFSYLRQGRCHISFVRERGVTPPKRDLPPRLFLSGGIRNNVWRTFSTRDYAMAVCNLTGNKKVSLLRHATLNSATAFIRYVHNHPFLPHLNRMSPGNVVAVLDYLKFEYNASRN | not soluble
11 | MSLDIQPFSMPLSSPLSTADGTIESRRGFLVRTEIDGVAGVGEAAPLPGWTESYDACQAALCGVEKPKQALEDNVFDDTPAARHAVSLAVADAAARRAGVPLYRRLGAGERVESVPVNATVGDGSPSATAEAVADAAAAGFPAAKVKVGNRSLDADIERIEAVRQRYPDIELRVDANGAWEFETAREAVESMSALGVAVLEQPLPAEALDNHRRLRGHGIDIALDEGLLRHGVDAAIAAEAADCLVCKPMALGGVDIARSAAERARADGWDVIVTTTIDGVVARAAAVHLAASVPDVRPCGLATGGRLASDVGPDAAPVSDGTAAVPQGKGNIPPLEGHHHHHH | soluble
12 | MSNAIEINELHWLLAVTQNIDVGIVVLDLNYRVTVWNTFMENRSGVVPYVAIDKTFFELFPEVNRQWLSKKIDNVVTLGTPAFTIWEQRPYLVRFKNYQPITGHEEFMYQNTTLFPLRSTTGAISHVCLVIYDVTDVAANRN | not soluble
13 | MNNNLQRDAIAAAIDVLNEERVIAYPTEAVFGVGCDPDSETAVMRLLELKQRPVDKGLILIAANYEQLKPYIDDTMLTDVQRETIFSRWPGPVTFVFPAPATTPRWLTGRFDSLAVRVTDHPLVVALCQAYGKPLVSTSANLSGLPPCRTVDEVRAQFGAAFPVVPGETGGRLNPSEIRDALTGELFRQG | soluble
14 | MAEREFDMTIEEVTIKVAPGLDYKVFGFNGQVPGPLIHVQEGDDVIVNVTNNTSLPHTIHWHGVHQKGTWRSDGVPGVTQQPIEAGDSYTYKFKADRIGTLWYHCHVNVNEHVGVRGMWGPLIVDPKQPLPIEKRVTKDVIMMMSTWESAVADKYGEGGTPMNVADYFSVNAKSFPLTQPLRVKKGDVVKIRFFGAGGGIHAMHSHGHDMLVTHKDGLPLDSPYYADTVLVSPGERYDVIIEADNPGRFIFHDHVDTHVTAGGKHPGGPITVIEYDGVPVDDWYVWKDKDYDPNFFYSESLKQGYGMFDHDGFKGEFEQRQRRPGRKLAAALEHHHHHH | soluble
15 | MGSDKIHHHHHHLRFIIVSGPPSAGKTAVMIHAIRHLLKDGIKVAACKIDCLKTSDDKNYRALGIPVAVGLSEYLCPDHFFVANLEEIYAWGSYYGTEVLILETAGLCHRCAPAIQGCLSICVIDNLSGIDTPQKVGPMLSTADVVLISKGDVVSQAEREVFRQRVEMVNPDAAVLSVNGLNGQGSLKLKKIIMESASVKRIEGQELRCSMPAAICSYCTGETMIGSSYQMGNVKKLDFGKF | not soluble
16 | MGSDKIHHHHHHAATHAKTTKTVKTTGGAKTKAAKAKAIKSTSTHIKLQGASNARDLGGYVNRHGQKIKAHRLIRANSLSHLTKADQTKLVKTYHVATDVDLRTTTEQKMSPDVHMAGVKLVKANVFKSFGAFPDFSKKGAGAKMMEKTYHDAVTTAQGRKAYKSLFHQLLINPKGKAVLWHCSAGKDRAGMGTALVLSALKFDKKAIAQDYLKSNTYLAQTNKENLQKMEAGWKAQGKEVTPIVVENFRAQNAVKMAYLNTMYKAIDAKYGNMDNFLHKGLGLSNTQLKQLQANYLTSAK | not soluble
17 | DPGERLYDLNMPAYVKFNYMAEREDELSLIKGTKVIVMEKCSDGWWRGSYNGQVGWFPSNYVTEEGDSPLGDHVG | soluble
